Experimental findings from article PMC10163345 (Journal of Cell Science, 2023) are described below.

Where no end group is shown, it is not given here.

The target in the assay is T1, constitutively active truncated His-tagged WT calcineurin (6×His–CNAαWT:CNB) (human | , UniProt Q08209 1-392; P63098 1-170).
T1 construct: human CNAα (PPP3CA), truncated at residue 392, WT; calcineurin B subunit (PPP3R1, amino acids 1–170), expressed in tandem with CNAα; p11 vector (PSI:Biology-Materials Repository); held on His-tag Dynabeads in the pull-down; also called CNWT; source: E. coli BL21 (DE3), purified (Ni-NTA agarose, dialysed)
Briefly: pull-down; 1–2 μg 6×His-tagged CN bound to His-Tag Dynabeads; 7–10 μg purified GST-tagged peptide added, 2 h at 4°C; 50 mM Tris-HCl pH 7.5, 150 mM NaCl, 0.1% Tween 20, 1 mM β-mercaptoethanol, 15 mM imidazole, 0.5 mg/ml BSA; immunoblot. The settings on record: both partners purified.

T1 sequence (Q08209 1-392, chain 1 of 2): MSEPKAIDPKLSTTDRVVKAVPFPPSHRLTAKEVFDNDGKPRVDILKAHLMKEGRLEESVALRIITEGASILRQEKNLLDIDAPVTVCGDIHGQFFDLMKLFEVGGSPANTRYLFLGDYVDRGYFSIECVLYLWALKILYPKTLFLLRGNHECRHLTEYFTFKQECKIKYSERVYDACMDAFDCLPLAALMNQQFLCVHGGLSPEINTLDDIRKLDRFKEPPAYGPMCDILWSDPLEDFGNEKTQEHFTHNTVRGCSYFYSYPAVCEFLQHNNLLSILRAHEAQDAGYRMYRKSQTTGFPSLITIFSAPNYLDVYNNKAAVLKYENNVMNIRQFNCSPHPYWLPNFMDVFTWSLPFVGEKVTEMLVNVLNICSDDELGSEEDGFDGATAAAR
T1 sequence (P63098 whole entry, chain 2 of 2, the tested form may be a part): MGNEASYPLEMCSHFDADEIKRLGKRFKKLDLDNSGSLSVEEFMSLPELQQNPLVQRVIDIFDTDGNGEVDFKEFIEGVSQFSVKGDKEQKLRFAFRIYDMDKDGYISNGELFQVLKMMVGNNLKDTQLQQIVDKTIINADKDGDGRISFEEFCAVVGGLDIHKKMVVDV

B1: GST-tagged POC5 PxIxIT peptide (POC5 PDVRIS) (peptide)
chain: KGELVPDVRISTIHDI
modifications: also: GST-tagged
notes: 16mer of human POC5 with the PxIxIT motif PDVRIS (residues 35–40 of Q8NA72-3) in the centre; pGEX-4T-3 vector; also called WT POC5 peptide; source: E. coli BL21 (DE3), purified (Glutathione Sepharose 4B, dialysed)
B1: the binding result was “binds”.
